Each block holds one binder with its values, some of them ahead of it. Bridge positions count the residues as written; N and C are the ends. Square brackets hold non-standard residues; d marks the D form. * marks the point of attachment. chloroacetamidine = chloroacetamidine warhead on ornithine δ-NH2, N=C(CCl)*; Ahp(2) = CCCCC[C@H](N)C(=O)O; Orn = NCCC[C@H](N)C(=O)O
Key:
His-PAD4 = target: T1, His-PAD4 (human, UniProt Q9UM07 1-663); experiment: SPR (Biacore T100, Ni-NTA sensor chip, His-PAD4 immobilized, peptide injected, 25 C)
T1 construct: Immobilised on a Ni-NTA sensor chip for SPR; No other PAD4 is described; also called peptidyl arginine deaminase 4; not shown: His tag
Description: Analysis of a reaction rate was performed at 25° C. using Biacore T100 instrument (GE healthcare) and a Ni-NTA sensor chip. His-PAD4 was immobilized on a chip surface. In any experiment, modified HBS-EP+(10 mM HEPES-KOH [pH 7.4], 150 mM NaCl, 50 μM EDTA, 0.05% Tween 20, 0.1% DMSO) was used as a running buffer. The reaction rate data were corrected by injecting five peptides having respectively different concentrations for one minute at a flow rate (10 mM HEPES-KOH [pH 7.4], 150 mM NaCl, 50 μM EDTA, 0.05% Tween 20, 0.1% DMSO). Peptide dissociation was performed for one minute during injection and for 3 minutes after the last injection.
Background binding was monitored by performing blank buffer injection twice before sample injection and once after sample injection in order to double reference with the surface of a negative control having no His-PAD4 bound thereto but having nickel. The binding sensorgram, the binding sensorgram was analyzed using the Biacore software.

Human PAD4 = Human PAD4 (human, UniProt Q9UM07 1-663); experiment: cell-based or functional assay
Sequence of Human PAD4 (Q9UM07 whole entry): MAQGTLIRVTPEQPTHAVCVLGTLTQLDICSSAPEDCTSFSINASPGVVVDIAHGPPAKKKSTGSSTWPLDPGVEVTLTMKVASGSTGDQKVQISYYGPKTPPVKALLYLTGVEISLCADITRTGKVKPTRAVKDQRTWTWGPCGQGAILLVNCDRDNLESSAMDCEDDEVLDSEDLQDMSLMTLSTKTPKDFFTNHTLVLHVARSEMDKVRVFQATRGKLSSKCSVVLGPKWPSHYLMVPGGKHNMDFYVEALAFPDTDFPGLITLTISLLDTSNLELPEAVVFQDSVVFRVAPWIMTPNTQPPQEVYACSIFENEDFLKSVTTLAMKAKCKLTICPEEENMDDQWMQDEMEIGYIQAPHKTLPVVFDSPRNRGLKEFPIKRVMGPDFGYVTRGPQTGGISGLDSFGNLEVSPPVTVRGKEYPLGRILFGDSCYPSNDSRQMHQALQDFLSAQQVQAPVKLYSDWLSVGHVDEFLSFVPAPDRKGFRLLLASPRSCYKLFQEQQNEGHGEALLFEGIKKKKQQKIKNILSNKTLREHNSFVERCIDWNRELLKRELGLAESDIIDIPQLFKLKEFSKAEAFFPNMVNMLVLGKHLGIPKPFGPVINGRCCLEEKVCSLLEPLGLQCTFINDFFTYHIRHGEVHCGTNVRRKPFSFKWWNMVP

T1 sequence (Q9UM07 whole entry): as above

Kd (His-PAD4): 38.7 nM | koff (His-PAD4): 0.00356 s⁻¹ | kon (His-PAD4): 92100 M⁻¹ s⁻¹
B1: VB1C20 peptide (peptide)
peptide: {CH2CO}-[dF]DA[Ahp(2)]YPFRPP[Ahp(2)]AHC-NH2
modifications: thioether N-14
SMILES: CCCCC[C@@H]1NC(=O)[C@H](C)NC(=O)[C@H](CC(=O)O)NC(=O)[C@@H](Cc2ccccc2)NC(=O)CSC[C@@H](C(N)=O)NC(=O)[C@H](Cc2c[nH]cn2)NC(=O)[C@H](C)NC(=O)[C@H](CCCCC)NC(=O)[C@@H]2CCCN2C(=O)[C@@H]2CCCN2C(=O)[C@H](CCCNC(=N)N)NC(=O)[C@H](Cc2ccccc2)NC(=O)[C@@H]2CCCN2C(=O)[C@H](Cc2ccc(O)cc2)NC1=O

Kd (His-PAD4): 55 nM | koff (His-PAD4): 0.00664 s⁻¹ | kon (His-PAD4): 121000 M⁻¹ s⁻¹
B2: VB1C12 peptide (peptide)
peptide: {CH2CO}-[dF]NA[Ahp(2)]YPYRPP[Ahp(2)]TSC-NH2
modifications: thioether N-14
SMILES: CCCCC[C@@H]1NC(=O)[C@H](C)NC(=O)[C@H](CC(N)=O)NC(=O)[C@@H](Cc2ccccc2)NC(=O)CSC[C@@H](C(N)=O)NC(=O)[C@H](CO)NC(=O)[C@H]([C@@H](C)O)NC(=O)[C@H](CCCCC)NC(=O)[C@@H]2CCCN2C(=O)[C@@H]2CCCN2C(=O)[C@H](CCCNC(=N)N)NC(=O)[C@H](Cc2ccc(O)cc2)NC(=O)[C@@H]2CCCN2C(=O)[C@H](Cc2ccc(O)cc2)NC1=O

IC50 (read off the curve) (Human PAD4): ~8000 nM
B3: VB1C12-Cl-amidine analog (peptide)
peptide: {CH2CO}-[dF]NA[Ahp(2)]YPY[Orn](chloroacetamidine)PP[Ahp(2)]TSC-NH2
modifications: thioether N-14
SMILES: CCCCC[C@@H]1NC(=O)[C@H](C)NC(=O)[C@H](CC(N)=O)NC(=O)[C@@H](Cc2ccccc2)NC(=O)CSC[C@@H](C(N)=O)NC(=O)[C@H](CO)NC(=O)[C@H]([C@@H](C)O)NC(=O)[C@H](CCCCC)NC(=O)[C@@H]2CCCN2C(=O)[C@@H]2CCCN2C(=O)[C@H](CCCNC(=N)CCl)NC(=O)[C@H](Cc2ccc(O)cc2)NC(=O)[C@@H]2CCCN2C(=O)[C@H](Cc2ccc(O)cc2)NC1=O
